± gives the uncertainty stated by the source.
Experiment: amyloid nucleation score (Sup35N fusion, yeast selection) (log enrichment); library NNK1; higher = more nucleation; inactive = no reads after selection
How it was run: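 Psi-negative yeast expressed Sup35N fused to peptides of 20 random codons. They were induced 24 hours with 100 μM copper sulfate, grown 7 days at 30°C without adenine and uracil, and their plasmid inserts from input and output were Illumina-sequenced. The nucleation score is the DiMSum log enrichment of output over input reads, centred on the mode score of non-aggregating sequences. Sequences with under 100 input reads were excluded.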

Substance | amyloid nucleation score
LVVSWKLVPSSSTYCGTMSL | inactive
DSASGNILYIRKLVI | 1.84 ± 0.13
GQWGVVHIQQGVQYCATIRG | 0.331 ± 0.69
FLICVTSNWLGTYCRVERFW | 0.023 ± 0.35
CDYLNGLKGYSP | -0.19 ± 0.35
FTNKFCFL | 0.069 ± 0.35
LDTYRVNWMMRLATYNMMVM | 0.312 ± 0.4
SVVTFT | 0.575 ± 0.49
WFICKYNQFDHDVLFSVSTA | 1.92 ± 0.68
FFAGSQIFIHRSLEWI | 1.68 ± 0.17
RVTFLWLCLYQGMVALVNSP | -0.156 ± 0.84
TFSHWPLWNVYRSFAFTCRP | 0.871 ± 0.47
NVLWIPSSGISSVRLEGIAM | 0.393 ± 0.46
WYCPATH | 0.836 ± 0.97
VLLGSCWVFKSQKGRGPSSC | -0.51 ± 0.69
CIFHL | 0.303 ± 0.65
RVGESVI | 0.348 ± 0.55
YKEFVLYILYRLGLMIRKA | inactive
VITVRLFILW | -0.213 ± 0.43
YFKNTGEVRSIRLSGHHGWG | 0.048 ± 0.86
FNSYKGLIVQKYPSMTLN | 0.302 ± 1
LSEYYKAKGDRVTWPQFLTT | -0.453 ± 0.49
NKMGFSRCSLQGDVKFF | -0.482 ± 0.51
HGKFRHLSCTASSNEVEGNN | 1.17 ± 0.58
YGYMGGCHFPLYLMRIDSRD | 0.564 ± 0.75

Substance | amyloid nucleation score
CKDFRRAVVNEFPVSVSFYC | 0.922 ± 0.9
DIFHSLILHMDMYEG | 0.811 ± 0.85
SGHDGARVVMRRILYTSKSG | 0.291 ± 0.34
VCSCRFLYI | -1.53 ± 1.6
TPKLIAV | -2.05 ± 1.9
MSSVVLANFEGPAHELATGV | -0.072 ± 0.58
DCQNYLSFVN | -1.29 ± 2.4
KLKINCMYN | 2.03 ± 0.45
LYGNT | 1.37 ± 0.38
WKQLTCWSEILDTIDSL | 0.901 ± 0.79
FATMGSKKCSGARHSKRGSC | -0.26 ± 0.34
SCDFILLLAVT | 0.352 ± 0.36
FHPKFWCNRFS | -0.442 ± 0.72
MQTLPIR | -0.519 ± 0.46
LKQSYKKPY | inactive
WLPFLVFCRGESYYRLDRSS | 2.42 ± 0.091
HFAGCNSIDLQCNIRCKNIR | 5.469 ± 0.048
SRPQLDKTLFGLVA | 0.771 ± 0.62
MYFIVCTSWGSVVDRGIH | inactive
SCKLIDRAILICWRSPTALV | 0.109 ± 1.6
LLFYYLHIFMFSDDRVM | 0.582 ± 0.56
VRAGH | 0.087 ± 0.27
VGRFLSYGRWLA | -0.393 ± 0.42
AFRRNSPVSWSRR | 0.37 ± 0.35
LGYRPWFWTTAFSSLADLAR | -0.907 ± 1.3

Substance | amyloid nucleation score
SRKKKIVITEPNHSSRHQSV | 0.003 ± 0.86
PVAVVGILHPVFDRRPMRTV | -0.031 ± 0.89
YNVVSSKNNTVRFVLFP | 4.31 ± 0.12
TELSEHVRSRLWSKG | 0.355 ± 0.42
GRLPLTKWASMTRVLMYLLR | 0.652 ± 0.47
RCIVWC | 0.207 ± 0.56
RFEKTWHWSAIAGRQGGGIF | -0.697 ± 0.88
FELGLNCCFLGLVVYAQVNA | inactive
HVHWPLLNNAYAS | 0.867 ± 0.93
MVNILIK | 0.462 ± 0.49
DTNKNFSFSKAQ | -0.081 ± 0.37
YGINMWRYLGNQEEATIVFL | 0.244 ± 0.3
LTMCSGICEVIRQARDHHYR | 0.149 ± 0.97
RCGLAQSSVSSSVKGPRVTW | -0.31 ± 0.6
FTYSLFCAYI | 1.18 ± 0.66
EDALRIFRKETDPDL | 0.681 ± 0.29
FIVERDTHQGMHFGLMLING | 0.286 ± 0.62
WVQNHKRQAPRDVLLSSYPD | inactive
CNMVHVVIERDGSGRRGCGL | 5.38 ± 0.055
KCGRVWHVFFVVSYQGVGST | 1.31 ± 0.46
PTYIKLILTAHYLSEFRSNV | 1.02 ± 0.17
YILWHEIFQDCLTRDIIRLM | 0.248 ± 0.54
ASFLRNVFWVIREYTLCEYV | 0.647 ± 0.19
YALCKLSA | 0.851 ± 0.79
IMLANVSLLVRNHGRY | 3.02 ± 0.16

Substance | amyloid nucleation score
SSISV | 2.35 ± 0.53
SIVNVDVALSHLCSYQRSRM | 4.11 ± 0.1
SCSYLSKYTYRREMVYGNEV | 0.002 ± 0.22
LCTLCIALPVMRVLSTVPVP | 0.267 ± 0.59
TVFFCNWVEPYDFNICR | 6.763 ± 0.059
KFACLRWVICKYCLWV | -0.412 ± 0.49
IFVYRRRMGSIV | 1.08 ± 0.32
AGAVLLNVMLCARLQRSEYY | 2.17 ± 0.14
VWGQRGSGSNSCLEW | 0.15 ± 0.68
GNIDGICERSCNRFANYIQG | 1.11 ± 0.49
LFLMKANMELVNLYFRSEVR | -0.556 ± 0.52
WHASNFLTSSSHKMSSNWTS | 0.67 ± 0.48
HFYSGECVFRGACRYQRRGH | 0.402 ± 1.4
VISHEPAVFPTSRS | 0.121 ± 0.45
YGETGVINWRV | -0.217 ± 0.44
YGCDGDVFRLIVWDVIAPSE | 0.044 ± 0.34
AVYICPYLQSGNALATDMW | 0.587 ± 1.1
KSEYWHSCYVANSPYDYRTV | -0.422 ± 1.2
DDHSLQPRLPLE | inactive
VRIINMFVDPNIIL | 6.818 ± 0.044
FVTNTWRVTVCPSQLFGILR | inactive
LGYVIYFVFWRRHSFSYSAC | -0.407 ± 0.31
LVGPAVVSYCCIRLISVVD | 1.94 ± 0.58
KRLGWSSVFRLARVERVLRS | -0.929 ± 1.9
KVWSGCSAPQ | 2.09 ± 0.43

Substance | amyloid nucleation score
RRYFSLYLAGSLELMFAWVM | -1.79 ± 2.7
TGRYISDYCVIKAYVYSICD | -0.135 ± 0.39
MLEVKPLTCMVSPIYDFMPG | -0.134 ± 0.41
APFHEGNIFRAVTFKTYPSR | -0.422 ± 0.72
TNFYAVFLLLGGSGF | 7.171 ± 0.051
AFGMSLGG | 0.225 ± 0.65
SNSSLECYCMNVVRFHLGLS | 0.735 ± 0.18
CLNSHFGKNISNLFVCDLVC | 0.484 ± 0.61
GRMSRMILD | -0.407 ± 0.69
WPVYEDKACCHVDAHKGEAT | 0.838 ± 0.48
LYFGNTGKGNFRQVSRLKHS | 0.116 ± 0.73
LKTYFGVVSRTLGLCLREEI | 0.489 ± 0.43
SIYALVSCSVFVTAMDAVQA | 4.17 ± 0.061
LQRGQVLALADSRFCVRCSR | 1.02 ± 0.57
TMTFPKVLWPCGLVRNFCST | -0.294 ± 0.67
FKYYQAGSYNRKRMTQDGGS | 0.175 ± 0.46
HIIQNLV | 0.25 ± 0.77
QSICFYSLKQCIRAKHR | 0.774 ± 0.37
QHTNTSLSVTTPPVLYWNHC | 0.419 ± 0.45
GFTYTC | -0.915 ± 1.1
YSSRIVRVSVRRVIHQSLRS | 1.41 ± 0.52
LIFVNVSGL | 6.406 ± 0.054
AILVHCSVLTVA | 0.584 ± 0.66
IIMVRLFSRNGVEDC | 1.61 ± 0.12
GGGSMAGAERPGGLGQVRCN | 1.2 ± 0.6

Substance | amyloid nucleation score
YVMQSATDVETSNSGIS | 0.525 ± 0.84
IQSFAMLMQVCLIAHLYRRL | 0.108 ± 1
SLYNTLEVNDNKHRVNFLVA | 0.652 ± 0.58
VYTDLKGENAGGIIYCGIGS | 0.445 ± 0.26
VLTEGYLFTSLIDL | -0.22 ± 0.43
YTVTCYCGSDTWSKMLAKVF | -1.16 ± 2.4
LRVYPGTYLTNRETRSRSCI | 0.828 ± 0.43
LVGGVTNWWCVEVDQKGQNG | inactive
SQVLGSLLFRSPRVWICVAG | -0.969 ± 2.1
RRARFFFRGYY | 6.12 ± 0.078
NAFQRV | 0.6 ± 0.72
ILFMLECGMSTTSCHKIRVC | -0.157 ± 0.36
DILDSH | -0.824 ± 0.38
MKMNDYMGVRDWVHLIDVCS | inactive
SMHSLGSHEGSRRIPGLSFD | -0.007 ± 1.2
RGELAVRKPG | 0.402 ± 0.28
YIASMVCDIRKPHPCLVYVL | 0.149 ± 0.42
SKTVVTKVKLSIWAGRVLRF | -1.14 ± 1.9
FPSLNNVNPSGFCSISSFRG | inactive
FSFYLYGGSC | -1.47 ± 2.4
AVCYHGFRMATAASEVCGAS | 0.327 ± 0.38
VRVWTYLAWVQYLPYQMGLF | inactive
QNRLS | 2.28 ± 0.61
PLNHNSY | 1.47 ± 0.51
NCHSSFYGNDIGGLSHVMCL | 1.89 ± 0.7

Substance | amyloid nucleation score
RLLEIWFMLRFGLFVSQCTI | -0.148 ± 0.34
LPCYSSLQSLGQRMQVKG | 0.025 ± 0.31
YGTNKISVALWS | -0.054 ± 0.79
DCAKTANDSDVLFFDTSGAR | 0.504 ± 0.4
SHNGCKIWGMDNLIVH | -0.616 ± 0.46
VVVVDDHDDVALSFIHTMSR | 0.164 ± 0.43
DMNNNIVSKSSFLGDVRVIY | -0.19 ± 1.2
VLARNRWRRKWRHTRGWVRG | 0.157 ± 1.4
LSRSSWQQARICARVHGLGG | 1.05 ± 0.58
FWLIHGMIQMGYVK | -0.458 ± 1.2
SMTSWWVRGLLPVNGD | 2.53 ± 0.13
LCVCGPRSVVNAREDVEGLS | 0.478 ± 0.55
VKDASFRFAQQEGMRLRMQS | 0.503 ± 0.38
SGAGVGSPVVKELSWFKLKV | 0.331 ± 0.77
LNNYNGVTVGWGNSWYLYLG | -0.116 ± 0.45
VSCANMNIDELTWHVDWWCL | 7.597 ± 0.047
CILGWKYLDVVYDQRRLRCG | 0.939 ± 0.46
DATVQTWGDVKSGLWWVCCP | 5.62 ± 0.098
FSAKYMQGTQWSRLVHMLRT | 0.112 ± 0.48
SELIAQDMPQIENLTVDAAW | -0.38 ± 0.35
NTLTMIHLIVLTELSLFK | 0.297 ± 0.26
IMRYLGVKKVE | -0.245 ± 0.4

Source: the supplement of paper PMC12042874
